From ChEMBL document CHEMBL2074146, “Transport of the sulfated, amidated bile acid, sulfolithocholyltaurine, into rat hepatocytes is mediated by Oatp1 and Oatp2” (Hepatology, 2002)

Tests used:
Format in all cases: functional, cell-based
[1] = molecular target: T1, Solute carrier organic anion transporter family member 1A4 (Rattus norvegicus, UniProt O35913); experiment: (§1) TP_TRANSPORTER: uptake in Oatp2-expressing HeLa cells; details: human
T1 sequence (O35913 whole entry): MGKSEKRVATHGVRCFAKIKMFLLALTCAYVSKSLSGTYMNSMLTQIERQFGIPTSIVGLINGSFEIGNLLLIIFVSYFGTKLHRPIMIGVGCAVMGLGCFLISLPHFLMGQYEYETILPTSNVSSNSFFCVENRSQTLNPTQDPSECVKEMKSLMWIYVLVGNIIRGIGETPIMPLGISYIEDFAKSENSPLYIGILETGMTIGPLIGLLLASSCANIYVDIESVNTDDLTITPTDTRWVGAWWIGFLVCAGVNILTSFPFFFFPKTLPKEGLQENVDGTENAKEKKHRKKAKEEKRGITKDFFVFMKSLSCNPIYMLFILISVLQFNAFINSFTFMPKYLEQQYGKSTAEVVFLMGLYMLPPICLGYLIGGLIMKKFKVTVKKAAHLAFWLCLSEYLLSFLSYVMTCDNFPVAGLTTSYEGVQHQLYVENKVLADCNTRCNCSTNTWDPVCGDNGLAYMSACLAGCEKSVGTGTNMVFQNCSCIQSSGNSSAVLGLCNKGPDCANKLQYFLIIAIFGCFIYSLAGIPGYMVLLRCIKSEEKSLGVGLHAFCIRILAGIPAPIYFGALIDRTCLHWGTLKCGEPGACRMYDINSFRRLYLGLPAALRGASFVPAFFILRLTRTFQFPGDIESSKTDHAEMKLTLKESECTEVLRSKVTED

[2] = substrate: [H][C@]12CC[C@]3([H])[C@]([H])(CC[C@]4(C)C([C@H](C)CCC(=O)NCCS(=O)(=O)O)CC[C@@]34[H])[C@@]1(C)CC[C@@H](OS(=O)(=O)O)C2; experiment: as §1
[3] = substrate: [H][C@]12CC[C@]3([H])[C@]([H])(CC[C@]4(C)C([C@H](C)CCC(=O)NCCS(=O)(=O)O)CC[C@@]34[H])[C@@]1(C)CC[C@@H](OS(=O)(=O)O)C2; experiment: TP_TRANSPORTER: uptake in Oatp1-expressing HeLa cells

## C[C@]12CC[C@@H]3c4ccc(O)cc4CC[C@H]3[C@@H]1CC[C@@H]2O[C@@H]1O[C@H](C(=O)O)[C@@H](O)[C@H](O)[C@H]1O [ESTRADIOL 17B GLUCURONIDE]
[1]
  Activity: substrate [+]

B1: Solute carrier organic anion transporter family member 1A4 (Rattus norvegicus) (protein)
chain: MGKSEKRVATHGVRCFAKIKMFLLALTCAYVSKSLSGTYMNSMLTQIERQFGIPTSIVGLINGSFEIGNLLLIIFVSYFGTKLHRPIMIGVGCAVMGLGCFLISLPHFLMGQYEYETILPTSNVSSNSFFCVENRSQTLNPTQDPSECVKEMKSLMWIYVLVGNIIRGIGETPIMPLGISYIEDFAKSENSPLYIGILETGMTIGPLIGLLLASSCANIYVDIESVNTDDLTITPTDTRWVGAWWIGFLVCAGVNILTSFPFFFFPKTLPKEGLQENVDGTENAKEKKHRKKAKEEKRGITKDFFVFMKSLSCNPIYMLFILISVLQFNAFINSFTFMPKYLEQQYGKSTAEVVFLMGLYMLPPICLGYLIGGLIMKKFKVTVKKAAHLAFWLCLSEYLLSFLSYVMTCDNFPVAGLTTSYEGVQHQLYVENKVLADCNTRCNCSTNTWDPVCGDNGLAYMSACLAGCEKSVGTGTNMVFQNCSCIQSSGNSSAVLGLCNKGPDCANKLQYFLIIAIFGCFIYSLAGIPGYMVLLRCIKSEEKSLGVGLHAFCIRILAGIPAPIYFGALIDRTCLHWGTLKCGEPGACRMYDINSFRRLYLGLPAALRGASFVPAFFILRLTRTFQFPGDIESSKTDHAEMKLTLKESECTEVLRSKVTED
[2]
  Km: 14.6 µM

B2: Solute carrier organic anion transporter family member 1A1 (Rattus norvegicus) (protein)
chain: MEETEKKIATQEGRLFSKMKVFLLSLTCACLTKSLSGVYMNSMLTQIERQFDISTSVAGLINGSFEIGNLFFIVFVSYFGTKLHRPVVIGIGCVIMGLGCLLMSLPHFFMGRYEYETTISPTGNLSSNSFLCMENRTQTLKPTQDPAECVKEMKSLMWICVMVGNIIRGIGETPIVPLGISYIEDFAKSENSPLYIGILEMGKVAGPIFGLLLGSYCAQIYVDIGSVNTDDLTITPSDTRWVGAWWIGFLVCAGVNILTSIPFFFLPKALPKKGQQENVAVTKDGKVEKYGGQAREENLGITKDFLTFMKRLFCNPIYMLFILTSVLQVNGFINKFTFLPKYLEQQYGKSTAEAIFLIGVYSLPPICLGYLIGGFIMKKFKITVKKAAYLAFCLSVFEYLLFLCHFMLTCDNAAVAGLTTSYKGVQHQLHVESKVLADCNTRCSCSTNTWDPVCGDNGVAYMSACLAGCKKFVGTGTNMVFQDCSCIQSLGNSSAVLGLCKKGPECANRLQYFLILTIIISFIYSLTAIPGYMVFLRCVKSEEKSLGVGLHTFCIRVFAGIPAPVYFGALIDRTCLHWGTLKCGQRGACRMYDINSFRHIYLGLPIALRGSSYLPAFFILILMRKFQFPGDIDSSATDHTEMMLGEKESEHTDVHGSPQVENDGELKTKL
[3]
  Km: 12.6 µM
